System: B. subtilis peptidoglycan
Assay: Peptidoglycan binding (pelleting with insoluble peptidoglycan, SDS-PAGE/Coomassie)
Parameters: species or system Bacillus subtilis
Details: for binding to cell wall (result in words): his6-tagged extracellular domain
Excerpt: Peptidoglycan Binding. The C-terminal fragment of PrkC (His6-PASTABs) composed of residues 357-648 was purified using Ni^2+ affinity chromatography with an E. coli strain carrying pIMS40 that overproduces His6-PASTABs. His6-Yycl composed of residues 31-280 was purified using identical methodology using an E. coli strain carrying pIMS36. His6-AcmA composed of residues 243-439 using an E. coli strain carrying pIMS42 and His6-PASTASa composed of residues 378-644 using an E. coli strain carrying pIMS44 were purified using identical methodology. 50 μg of proteins was separately incubated with purified B. subtilis or S. aureus peptidoglycan (˜5 mg) in 20 mM Tris-HCl, 50 mM MgCl2, 500 mM NaCl for 30 min at 4° C. Centrifugation (10 min, 15 k) was employed to remove the supernatant (soluble fraction) and the pellet was washed twice, then resuspended it in 2% SDS and incubated at RT for 1 h. Bound fraction (insoluble fraction) was recovered by removing the […] by centrifugation. Fractions consisting of unbound soluble protein and insoluble bound protein, and the wash were analyzed by SDS-PAGE. The gels were stained with Coomassie blue and the differences in the amounts of His6-PASTA in the two fractions were determined by measurement of the appropriate bands using ImageJ (NIH).

B1: His6-PASTABs: His-tagged C-terminal extracellular fragment of B. subtilis PrkC, residues 357-648, three PASTA repeats (protein)
chain: MLIGKRISGRYQILRVIGGGGMANVYLAEDIILDREVAIKILRFDYANDNEFIRRFRREAQSASSLDHPNIVSIYDLGEEDDIYYIVMEYVEGMTLKEYITANGPLHPKEALNIMEQIVSAIAHAHQNQIVHRDIKPHNILIDHMGNIKVTDFGIATALSSTTITHTNSVLGSVHYLSPEQARGGLATKKSDIYALGIVLFELLTGRIPFDGESAVSIALKHLQAETPSAKRWNPSVPQSVENIILKATAKDPFHRYETAEDMEADIKTAFDADRLNEKRFTIQEDEEMTKAIPIIKDEELAKAAGEKEAEVTTAQENKTKKNGKRKKWPWVLLTICLVFITAGILAVTVFPSLFMPKDVKIPDVSGMEYEKAAGLLEKEGLQVDSEVLEISDEKIEEGLMVKTDPKADTTVKEGATVTLYKSTGKAKTEIGDVTGQTVDQAKKALKDQGFNHVTVNEVNDEKNAGTVIDQNPSAGTELVPSEDQVKLTVSIGPEDITLRDLKTYSKEAASGYLEDNGLKLVEKEAYSDDVPEGQVVKQKPAAGTAVKPGNEVEVTFSLGPEKKPAKTVKEKVKIPYEPENEGDELQVQIAVDDADHSISDTYEEFKIKEPTERTIELKIEPGQKGYYQVMVNNKVVSYKTIEYPKDE
In the case of B1, the “% of total protein associated with the insoluble (peptidoglycan-bound) fraction” value (50 μg protein, ˜5 mg purified peptidoglycan) is reported as “Approximately 40%”, the “binding to cell wall (result in words)” value is reported as “binds to cell wall much better than Yycl” and the “binding to cell wall (result in words)” value (listed as extracellular domain of PrkC) is reported as “bound to cell wall much better than a control protein”.

From patent US20110086797A1, “CONTROL OF SPORE GERMINATION” (priority 2007, published 2011)
